Reference: US20150344570A1 (published 2015)
Values belong to the binder of their own block, whether it stands above or below them.

Legend:
[1] = target: T1, FcγRIIIa (human, UniProt P08637 17-208); assay: SPR (Biacore); KD of GpH7-TA7/GpH7-B78/GpL16-k0 for FcγRIIIa divided by the KD of this antibody (this row is the reference itself)
T1 construct: extracellular domain; Soluble extracellular domain with a C-terminal His tag, expressed in FreeStyle293 cells and used as the analyte in Biacore; also called FcgRIIIa; CD16A; not shown: His tag attached to the C terminus
T1 sequence (P08637 17-208): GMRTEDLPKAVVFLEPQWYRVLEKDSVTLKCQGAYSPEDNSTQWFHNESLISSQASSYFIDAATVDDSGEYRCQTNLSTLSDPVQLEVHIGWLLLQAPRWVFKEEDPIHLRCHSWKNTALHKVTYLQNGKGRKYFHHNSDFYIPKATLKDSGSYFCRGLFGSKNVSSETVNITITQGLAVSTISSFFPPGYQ
Experimental: The prepared antibodies were compared for the FcγRIIIa-binding activity using, as an indicator, KD for FcγRIIIa that was determined according to the method described in Reference Example 2.
Analysis of interaction between objective antibody and the FcγR was carried out using Biacore T100 (GE Healthcare). HBS-EP+ (GE Healthcare) was used as the running buffer, and the measurement temperature was set to 25° C. Chips produced by immobilizing the antigen peptide by the amine coupling method to a Series S Sencor Chip CM5 (GE Healthcare), or alternatively, chips produced by allowing preliminarily biotinylated antigen peptides to interact with and immobilize onto a Series S Sensor Chip SA (certified) (GE Healthcare) were used. Antibodies of interest were captured onto an antigen peptide-immobilized chip, and allowed to interact to each FcγR diluted with running buffer. To regenerate and repeatedly use the chip, the antibodies captured on the chip were washed off by reacting 10 mM glycine-HCl, pH 1.5.
Specifically, to calculate association rate constant ka (L/mol/s) and dissociation rate constant kd (1/s), sensorgrams obtained by measurement were processed for global fitting by Biacore Evaluation Software using 1:1 Langmuir binding model and dissociation constant KD (mol/1) was calculated from the resulting values.

[2] = target: FcγRIIb (human, UniProt P31994 43-217); assay: SPR (Biacore), KD
[3] = target: FcγRIa (human, UniProt P12314 16-292); assay: SPR (Biacore 4000)
Sequence of FcγRIa (P12314 16-292): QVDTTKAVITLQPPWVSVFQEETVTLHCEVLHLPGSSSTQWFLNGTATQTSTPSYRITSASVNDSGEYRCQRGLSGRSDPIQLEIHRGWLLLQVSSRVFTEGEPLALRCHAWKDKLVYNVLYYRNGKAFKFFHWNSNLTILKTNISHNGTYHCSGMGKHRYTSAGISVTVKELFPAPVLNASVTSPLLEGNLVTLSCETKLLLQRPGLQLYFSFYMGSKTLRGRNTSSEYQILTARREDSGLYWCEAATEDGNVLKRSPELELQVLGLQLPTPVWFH

[4] = target: FcγRIIIa F (human, UniProt P08637 17-208); assay: SPR (Biacore), KD; the variant that showed the most enhancement
Sequence of FcγRIIIa F (P08637 17-208): as the sequence (P08637 17-208) above

KD ratio [1]: 1
B1: GpH7-TA7/GpH7-B78/GpL16-k0 (antibody, human IgG1, kappa)
heavy 1: QVQLVQSGAEVKKPGASVTVSCKASGYTFTDYEMHWIRQPPGEGLEWIGAIDPKTGDTAYSESFQDRVTLTADKSTSTAYMELSSLTSEDTAVYYCTRFYSYTYWGQGTLVTVSSASTKGPSVFPLAPSSKSTSGGTAALGCLVKDYFPEPVTVSWNSGALTSGVHTFPAVLQSSGLYSLSSVVTVPSSSLGTQTYICNVNHKPSNTKVDKKVEPKSCDKTHTCPPCPAPEYLWGPSVFLFPPKPKDTLMISRTPEVTCVVVDVSHEDPEVKFNWYVDGVEVHNAKTKPREEQYNATYRVVSVLTVLHQDWLNGKEYKCKVSNKALPAPIEKTISKAKGQPREPQVYTLPPSRKELTKNQVSLTCLVKGFYPSDIAVEWESNGQPENNYKTTPPVLDSDGSFFLYSKLTVDKSRWQQGNVFSCSVMHEALHNRYTQKSLSLSP
heavy 2: QVQLVQSGAEVKKPGASVTVSCKASGYTFTDYEMHWIRQPPGEGLEWIGAIDPKTGDTAYSESFQDRVTLTADKSTSTAYMELSSLTSEDTAVYYCTRFYSYTYWGQGTLVTVSSASTKGPSVFPLAPSSKSTSGGTAALGCLVKDYFPEPVTVSWNSGALTSGVHTFPAVLQSSGLYSLSSVVTVPSSSLGTQTYICNVNHKPSNTKVDKKVEPKSCDKTHTCPPCPAPELLGGPDVFLFPPKPKDTLMISRTPEVTCVVVDVSHEDPEVKFNWYVDGVEVHNAKTKPREEQYNSTYRVVSVLTVLHQDWLNGKEYKCKVSNKALPLPEEKTISKAKGQPREPQVYTLPPSRDELTKNQVSLTCLVKGFYPSDIAVEWESNGQPENNYKTTPPVLDSDGSFFLYSKLTVDKSRWQQGNVFSCSVMHEALHNHYTQESLSLSP
light: DIVMTQSPLSLPVTPGEPASISCQASESLVHSNRNTYLHWYLQKPGQSPQLLIYKVSNRFSGVPDRFSGSGSGTDFTLKISRVEAEDVGVYYCSQNTHVPPTFGQGTKVEIERTVAAPSVFIFPPSDEQLKSGTASVVCLLNNFYPREAKVQWKVDNALQSGNSQESVTEQDSKDSTYSLSSTLTLSKADYEKHKVYACEVTHQGLSSPVTKSFNRGEC
notes: Heterodimerized anti-glypican-3 IgG1 antibody with two different H chains (same variable region GpH7) and a common L chain; also called TA7/B78

fold FcgRIIb-binding activity against native IgG1 [2]: ~50 times
B2: H240-Kn120/H240-Hl068/L73-k0 (antibody, human IgG1, kappa)
heavy 1: QDQLVQSGAEVKKPGASVKVSCKASGFNIKDTYIQWVRQAPGQGLEWMGRIDPLRKQTKYREKFEGRVTITADTSTNTAYMELSSLRSEDTAVYYCVRSGREFDYWGQGTLVTVSSASTKGPSVFPLAPSSKSTSGGTAALGCLVKDYFPEPVTVSWNSGALTSGVHTFPAVLQSSGLYSLSSVVTVPSSSLGTQTYICNVNHKPSNTKVDKKVEPKSCDKTHTCPPCPAPEYYWGPMVFLFPPKPKDTLMISRTPEVTCVVVDVSDEDPEVKFNWYVDGVEVHNAKTKPREEQYNATYRVVSVLTVLHQDWLNGKEYKCKVSNKDLPAPIEKTISKAKGQPREPQVCTLPPSRDELTKNQVSLWCLVKGFYPSDIAVEWESNGQPENNYKTTPPVLDSDGSFFLYSKLTVDKSRWQQGNVFSCSVMHEALHNHYTQKSLSLSP
heavy 2: QDQLVQSGAEVKKPGASVKVSCKASGFNIKDTYIQWVRQAPGQGLEWMGRIDPLRKQTKYREKFEGRVTITADTSTNTAYMELSSLRSEDTAVYYCVRSGREFDYWGQGTLVTVSSASTKGPSVFPLAPSSKSTSGGTAALGCLVKDYFPEPVTVSWNSGALTSGVHTFPAVLQSSGLYSLSSVVTVPSSSLGTQTYICNVNHKPSNTKVDKKVEPKSCDKTHTCPPCPAPELLGGPSVFLFPPKPKDTLMISRTPEVTCVVVDVSHEEPEVKFNWYVDGVEVHNAKTKPREEQYNSTYRVVSVLTVLHQDWLNGKEYKCKVSNDALPKPIEETISKAKGQPREPQVYTLPPSRCELTKNQVSLSCAVKGFYPSDIAVEWESNGQPENNYKTTPPVLDSDGSFFLVSKLTVDKSRWQQGNVFSCSVMHEALHNHYTQKSLSLSP
light: DIQMTQSPSSLSASVGDRVTITCRASQDIHKYIAWYQQKPGQAPRLLIQYTSTLQPGVPSRFSGSGSGTDYTFTISSLQPEDIATYYCLQYEQLRTFGGGTKVEIKRTVAAPSVFIFPPSDEQLKSGTASVVCLLNNFYPREAKVQWKVDNALQSGNSQESVTEQDSKDSTYSLSSTLTLSKADYEKHKVYACEVTHQGLSSPVTKSFNRGEC
notes: S239M introduced into H240-Kn067

koff [3]: < 5e-05 s⁻¹
B3: H240-Kn120/H240-Hl073/L73-k0 (antibody, human IgG1, kappa)
heavy 1: QDQLVQSGAEVKKPGASVKVSCKASGFNIKDTYIQWVRQAPGQGLEWMGRIDPLRKQTKYREKFEGRVTITADTSTNTAYMELSSLRSEDTAVYYCVRSGREFDYWGQGTLVTVSSASTKGPSVFPLAPSSKSTSGGTAALGCLVKDYFPEPVTVSWNSGALTSGVHTFPAVLQSSGLYSLSSVVTVPSSSLGTQTYICNVNHKPSNTKVDKKVEPKSCDKTHTCPPCPAPEYYWGPMVFLFPPKPKDTLMISRTPEVTCVVVDVSDEDPEVKFNWYVDGVEVHNAKTKPREEQYNATYRVVSVLTVLHQDWLNGKEYKCKVSNKDLPAPIEKTISKAKGQPREPQVCTLPPSRDELTKNQVSLWCLVKGFYPSDIAVEWESNGQPENNYKTTPPVLDSDGSFFLYSKLTVDKSRWQQGNVFSCSVMHEALHNHYTQKSLSLSP
heavy 2: QDQLVQSGAEVKKPGASVKVSCKASGFNIKDTYIQWVRQAPGQGLEWMGRIDPLRKQTKYREKFEGRVTITADTSTNTAYMELSSLRSEDTAVYYCVRSGREFDYWGQGTLVTVSSASTKGPSVFPLAPSSKSTSGGTAALGCLVKDYFPEPVTVSWNSGALTSGVHTFPAVLQSSGLYSLSSVVTVPSSSLGTQTYICNVNHKPSNTKVDKKVEPKSCDKTHTCPPCPAPELLSGPSVFLFPPKPKDTLMISRTPEVTCVVVDVSHEEPEVKFNWYVDGVEVHNAKTKPREEQYNSTYRVVSVLTVLHQDWLNGKEYKCKVSNDALPKPIEETISKAKGQPREPQVYTLPPSRCELTKNQVSLSCAVKGFYPSDIAVEWESNGQPENNYKTTPPVLDSDGSFFLVSKLTVDKSRWQQGNVFSCSVMHEALHNHYTQKSLSLSP
light: DIQMTQSPSSLSASVGDRVTITCRASQDIHKYIAWYQQKPGQAPRLLIQYTSTLQPGVPSRFSGSGSGTDYTFTISSLQPEDIATYYCLQYEQLRTFGGGTKVEIKRTVAAPSVFIFPPSDEQLKSGTASVVCLLNNFYPREAKVQWKVDNALQSGNSQESVTEQDSKDSTYSLSSTLTLSKADYEKHKVYACEVTHQGLSSPVTKSFNRGEC
notes: G236S introduced into H240-Hl068; also called H240-Kn120/H240-HI073/L73-k0

fold binding activity against H240-Kn033/H240-Hl033/L73-k0 [4]: 161 fold
B4: H240-Kn227/H240-Hl214/L73-k0 (antibody, human IgG1, kappa)
heavy 1: QDQLVQSGAEVKKPGASVKVSCKASGFNIKDTYIQWVRQAPGQGLEWMGRIDPLRKQTKYREKFEGRVTITADTSTNTAYMELSSLRSEDTAVYYCVRSGREFDYWGQGTLVTVSSASTKGPSVFPLAPSSKSTSGGTAALGCLVKDYFPEPVTVSWNSGALTSGVHTFPAVLQSSGLYSLSSVVTVPSSSLGTQTYICNVNHKPSNTKVDKKVEPKSCDKTHTCPPCPAPEEQWGPIVFLFPPKPKDTLMISRTPEVTCVVVDVSDEEPEVKFNWYVDGVEVHNAKTKPREEQYNATYRVVSVLTVLHQDWLNGKEYKCKVSNKALPAPIEKTISKAKGQPREPQVCTLPPSRDELTKNQVSLWCLVKGFYPSDIAVEWESNGQPENNYKTTPPVLDSDGSFFLYSKLTVDKSRWQQGNVFSCSVMHEALHNHYTQKSLSLSP
heavy 2: QDQLVQSGAEVKKPGASVKVSCKASGFNIKDTYIQWVRQAPGQGLEWMGRIDPLRKQTKYREKFEGRVTITADTSTNTAYMELSSLRSEDTAVYYCVRSGREFDYWGQGTLVTVSSASTKGPSVFPLAPSSKSTSGGTAALGCLVKDYFPEPVTVSWNSGALTSGVHTFPAVLQSSGLYSLSSVVTVPSSSLGTQTYICNVNHKPSNTKVDKKVEPKSCDKTHTCPPCPAPELLGGPSVFLFPPKPKDTLMISRTPEVTCVVVDVSHEEPEVKFNWYVDGVEVHNAKTKPREEQYNSTYRVVSVLTVLHQDWLNGKEYKCKVSNDALPFPIEETISKAKGQPREPQVYTLPPSRCELTKNQVSLSCAVKGFYPSDIAVEWESNGQPENNYKTTPPVLDSDGSFFLVSKLTVDKSRWQQGNVFSCSVMHEALHNHYTQKSLSLSP
light: DIQMTQSPSSLSASVGDRVTITCRASQDIHKYIAWYQQKPGQAPRLLIQYTSTLQPGVPSRFSGSGSGTDYTFTISSLQPEDIATYYCLQYEQLRTFGGGTKVEIKRTVAAPSVFIFPPSDEQLKSGTASVVCLLNNFYPREAKVQWKVDNALQSGNSQESVTEQDSKDSTYSLSSTLTLSKADYEKHKVYACEVTHQGLSSPVTKSFNRGEC
notes: 330 F in H240-Hl076
